Consider 13 molecules from PMC3950713.

Read-outs that look alike come from different tables or passages of the source.

Data set [1] deals with HpDprA(5-225), C-terminally truncated Helicobacter pylori DprA (H. pylori strain 26695) (UniProt B5ZAA1). Briefly: crystal structure.
Data set [2] has the same target.
For data set [3], the target named is HpDprA(5-217), C-terminally truncated Helicobacter pylori DprA (H. pylori strain 26695) (UniProt B5ZAA1). Briefly: crystal structure.
For data set [4] the target is unchanged. As to the kind of experiment: static light scattering.
For data set [5] the target is unchanged. As to the kind of experiment: SEC.
The target in data set [6] is Full-length Helicobacter pylori DprA (DNA processing protein A, HP0333) (H. pylori strain 26695) (UniProt B5ZAA1). As to the kind of experiment: SEC.
Data set [7] has as its target T1, HpDprA(5-217)WT (Helicobacter pylori 26695, UniProt O25100 5-217).
T1 sequence: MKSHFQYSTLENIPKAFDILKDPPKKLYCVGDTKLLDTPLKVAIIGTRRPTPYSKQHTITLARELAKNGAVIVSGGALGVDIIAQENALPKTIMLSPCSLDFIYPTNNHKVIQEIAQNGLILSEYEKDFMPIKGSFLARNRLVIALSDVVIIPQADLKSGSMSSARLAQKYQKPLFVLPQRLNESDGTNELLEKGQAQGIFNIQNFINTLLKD
Briefly: MST.

Data set [8] deals with T1, HpDprA(5-217)WT. Briefly: EMSA.
In a further data set the target is T2, HpDprA full-length (Helicobacter pylori 26695, UniProt O25100 1-270).
T2 sequence: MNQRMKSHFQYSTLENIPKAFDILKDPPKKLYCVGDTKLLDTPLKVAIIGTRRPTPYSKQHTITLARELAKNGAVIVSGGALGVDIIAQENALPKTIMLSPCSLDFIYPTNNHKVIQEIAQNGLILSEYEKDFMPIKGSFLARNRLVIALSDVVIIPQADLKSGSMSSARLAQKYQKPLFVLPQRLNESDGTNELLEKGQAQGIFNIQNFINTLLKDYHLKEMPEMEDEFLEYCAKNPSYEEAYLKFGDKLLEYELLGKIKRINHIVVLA
Briefly: EMSA.

Data set [9] concerns the target T1, HpDprA(5-217)WT. Briefly: EMSA. This is another data set of the same source.
For data set [10], the target named is T1, HpDprA(5-217)WT. Briefly: SEC/SLS.

As for “HpDprA(5-225), C-terminally truncated Helicobacter pylori DprA (from UniProt B5ZAA1 5-225) (domain or fragment)”, the stoichiometry N in data set [1] and in [2] was 2 in each case.
On to “HpDprA(5-217), C-terminally truncated Helicobacter pylori DprA (from UniProt B5ZAA1 5-217) (domain or fragment)”, for which the stoichiometry N in data set [3], in [4] and in data set [5] was 2 in each case.
For “Full-length Helicobacter pylori DprA (DNA processing protein A, HP0333) (from UniProt B5ZAA1 1-266) (natural protein)”, in data set [6], the stoichiometry N amounted to 2.

B1: dR30 (ssDNA)
DNA: CCACAACTGGATGATGCGGCGAAGTACTGT
For B1, in the data set with HpDprA(5-217)WT [7], the Kd stood at 370 ± 8.82 nM.

B2: dT50 (ssDNA)
DNA: TTTTTTTTTTTTTTTTTTTTTTTTTTTTTTTTTTTTTTTTTTTTTTTTTT
On to B2, for which the binding result with HpDprA(5-217)WT [8] is “binds”.

B3: dT10 (ssDNA)
DNA: TTTTTTTTTT
Take B3: the binding result in the data set with HpDprA(5-217)WT [7] is “no binding”.

B4: dR35 (ssDNA)
DNA: TACCTAACTGGATGAATCTGAGAACTACTGTGAAT
With B4, the binding result in the data set with HpDprA full-length is reported as “binds”.

B5: dT6 (ssDNA)
DNA: TTTTTT
B5: the binding result with HpDprA(5-217)WT [7] was “no binding”.

B6: dsDNA30 (dsDNA)
DNA 1: CCACAACTGGATGATGCGGCGAAGTACTGT
DNA 2: ACAGTACTTCGCCGCATCATCCAGTTGTGG
In the data set with HpDprA(5-217)WT [7], B6 had an equilibrium dissociation constant (Kd) of 831 ± 8.48 nM.

B7: dT40 (ssDNA)
DNA: TTTTTTTTTTTTTTTTTTTTTTTTTTTTTTTTTTTTTTTT
For B7, the binding result with HpDprA(5-217)WT [8] is recorded as “binds”.

B8: dT20 (ssDNA)
DNA: TTTTTTTTTTTTTTTTTTTT
Turning to B8, the binding result with HpDprA(5-217)WT [9] is given as “binds”.

B9: dT60 (ssDNA)
DNA: TTTTTTTTTTTTTTTTTTTTTTTTTTTTTTTTTTTTTTTTTTTTTTTTTTTTTTTTTTTT
In the case of B9, in the data set with HpDprA(5-217)WT [10], the binding result was “binds”.

B10: dA35 (ssDNA)
DNA: AAAAAAAAAAAAAAAAAAAAAAAAAAAAAAAAAAA
As for B10, in the data set with HpDprA(5-217)WT [7], the Kd was 1200 ± 35.3 nM.
